A word on the IC50: it is the midpoint of a concentration-inhibition curve. A word on the Kd: it is the equilibrium constant for the complex coming apart. A lower Kd goes with a tighter complex.

From patent US10280218B2, “Antibodies binding to BMP4, and uses thereof” (ACADEMISCH MEDISCH CENTRUM, priority 2014, dated 2019) come the findings set out here.

In one experiment the target is T1, BMP4 (Homo sapiens, UniProt P12644).
T1 sequence (P12644 293-408): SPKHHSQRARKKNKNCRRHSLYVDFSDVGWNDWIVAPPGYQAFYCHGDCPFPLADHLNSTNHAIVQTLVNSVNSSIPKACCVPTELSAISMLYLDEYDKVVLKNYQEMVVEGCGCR
The experiment is described as follows: Phosphorylation of SMAD1/5/8 in EPC2-hTERT cells (western blot). The note with it: 100 ng/ml BMP4, 4 hours; indicated concentrations. The class given is cell-based. Further details: purchased R&D Systems. How it is done: EPC2-hTERT cells were stimulated with mouse BMP4 and pSMAD activation detected by Western Blotting.
To detect phosphorylation of SMAD1/5/8 in vitro, EPC2-hTERTs were cultured in 24-well plates and activated with 100 ng/ml of BMP2, BMP4, BMP5, BMP6 or BMP7 (R&D Systems) for 4 hours with or without VHH at the indicated concentrations. After activation, each well was washed twice with ice-cold PBS and lysed with 100 μl M-PER lysis buffer (Sigma-Aldrich, MO, United States) containing Halt Protease and Phosphatase Inhibitor Cocktail (Thermo Scientific, Landsmeer, The Netherlands). Cell debris were pelleted and supernatant was collected. 15 μg of protein was then separated by 10% SDS-PAGE and transferred onto a PVDF membrane (Millipore, Amsterdam, The Netherlands). The blots were then blocked with 5% milk in Tris-buffered saline supplemented with 0.1% Tween-20 (TBST) for 1 hour at room temperature and washed in TBST before overnight incubation at 4° C. with antiphospho-SMAD1/5/8 (Cell Signalling), anti-βactin (Santa Cruz) or anti-GAPDH (Millipore) in 5% Bovine Serum Albumin (BSA). […] After a final wash with TBST, blots were incubated for 5 minutes in LumiGlow (BIOKE, Leiden, The Netherlands) and then chemiluminescence was detected using a Fuji LAS4000 illuminator (Fujifilm Medical Systems, Stamford, Conn.). Protein was quantitated with Image).

The target of experiment [1] is T2, BMP2 (Homo sapiens, UniProt P12643).
T2 sequence (P12643 283-396): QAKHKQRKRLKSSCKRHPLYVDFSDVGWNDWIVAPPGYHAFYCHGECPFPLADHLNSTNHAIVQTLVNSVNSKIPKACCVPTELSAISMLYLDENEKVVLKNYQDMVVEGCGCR
The experiment can be described thus: BMP activity luciferase reporter assay (BRE-luciferase, ID1 promoter) in C2C12 cells. The class given is cell-based, mouse. Here is the method:
(§1) One of the most studied BMP target genes is the Inhibitor of Differentiation 1 (ID1). This is an immediate early gene that is activated by binding of the phosphorylated SMADs to its promoter region (López-Rovira et al., 2002). Thus, we employed the BMP-responsive C2C12 cells, which are stably transfected with the BRE-luciferase vector containing the BMP-Responsive-Element (the mouse ID1 promoter) cloned into the pGL3 luciferase vector (Zilberberg 2007). […] C2C12 cells were treated with the different BMPs with or without our VHHs or human Noggin at a concentration of 5 μg/ml. Luciferase activity was measured after 16 hours incubation. Most of the transcriptional data is in concordance with the results obtained with the phosphorylation of SMAD1/5/8.
(§2) C2C12 cells were plated in 96-well plates at 5×10^3 cells/well and cells were allowed to attach overnight. 100 μl of DMEM with 0.1% BSA were added in each well. VHH antibodies and human Fc-Noggin at the indicated concentrations were added at the same time. Wells with unstimulated cells were added as controls. Cells were treated in triplicate with the BMPs at the indicated concentrations for 16 hours. Luciferase activity was measured by adding 100 μl of luciferase substrate solution from the Bright-Glo™ Luciferase Assay System (Promega Benelux, Leiden, The Netherlands). After 3 minutes of incubation, luciferase activity was measured with Synergy HT Multi-Mode Microplate Reader (Biotek, Winooski, Vt., United States). Luciferase values were normalized to background activity (activity of wells with no cells) and represented as ratio to the activity of BMP-stimulated cells.
(§3) To evaluate the extent of this increase in potency, the IC50 of the different VHHs were determined in a dose-dependent inhibition assay in C2C12 cells (FIG. 25). C2C12 cells were plated in 96-well plates at 5×10^3 cells/well and cells were allowed to attach overnight 100 μl of DMEM with 0.1% BSA were added in each well. VHH antibodies were added at the indicated concentrations at the same time as 5 ng/ml BMP4 (FIG. 25A-B, D) or 50 ng/ml of BMP2 (FIG. 25C,D). Luciferase activity was measured after 16 hours. Values are represented as ratio to the activity of BMP-stimulated cells. […] However, its effects were more striking for BMP2 rather than BMP4 inhibition. […] The IC50 values for BMP4 inhibition observed in our VHHs are considerably lower than those observed for anti-BMP4 commercially available from R&D (Katagiri et al 1994) and those described in WO_2008/030611.
(§4) C2C12 cells were cultured in 96-well plates at 5×10^3 cells/well. After overnight attachment cells were stimulated with 10 ng/ml hBMP4 (Cat No. 314-BP-020; R&D Systems), 50 ng/ml hBMP2 (Cat No. 355-BM-010; R&D Systems), 200 ng/ml hBMP5 (Cat No. 615-BMC-020; R&D Systems), 50 ng/ml hBMP6 (Cat No. 506-BP-020; R&D Systems), 200 ng/ml hBMP7 (Cat No. 354-BP-010; R&D Systems), 25 ng/ml hBMP9 (Cat No. 3209-BP-010; R&D Systems), 25 ng/ml hBMP10 (Cat No. 2926-BP-025; R&D Systems), 50 ng/ml hBMP12 (Cat No. 779-G7-010; R&D Systems) and with or without VHH antibodies: C4C4 and C8C8 at 500 ng/ml; natural antagonist: mNoggin (Cat No. 1967-NG-025; R&D Systems), hNoggin (Cat No. 6057-NG; R&D Systems) and mGremlin (cat#956-GR-050; R&D Systems) at 500 ng/ml; chemical antagonist: 0.5 μM LDN-193189 (Cat No. 11802; Cayman Chemical) and 0.2 μM DMH1 (Cat No. 57146; Selleckchem).
(§5) VHH efficacy was evaluated by stimulating cells with 10 ng/ml of hBMP4 and 50 ng/ml of hBMP2, with and without increase concentrations (from 0.1-10 μg/ml) of VHH and anti-BMP4 antibodies: clone 66119, clone 3H2, clone M912262, clone PA354-16.1.1, Clone EPR6211, and anti-BMP4 (ab39973). […] Unstimulated cells were used as controls and wells with no cells used to normalize the background activity. […]
In general terms: Reporter assays use an easily measured gene product as a stand-in for the process of interest.

Another experiment has as its system human BMP4. Described as above. The class given is cell-based, mouse. How it is done: as §1, §2, §3, §4, §5
Experiment [2] deals with T3, BMP2 (human).
T3 chain: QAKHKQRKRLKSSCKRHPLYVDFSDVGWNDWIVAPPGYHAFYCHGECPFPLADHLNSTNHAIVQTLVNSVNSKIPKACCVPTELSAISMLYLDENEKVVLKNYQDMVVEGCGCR
The experiment can be described thus: SPR. Background: SPR reads the build-up and loss of mass on a sensor chip optically.

“Also recorded” adds a separate entry of the source.

B1: C8E7: E7 linked to C8, hetero-dimer VHH bihead (protein)
chain: EVQLVESGGGLVQAGGSLRLSCAASGRTFRINDMGWYRQAPGKSRDMVARITSGGNTNYADSVKGRFTISRDNAKNTVYLQMNSLKPEDTAVYYCNADGLRFDSTRYRPFDSWGQGTQVTVSSGGGGSGGGGSEVQLVESGGGLVQAGGSLRLSCAASGSIRGFVAMAWYRQAPGKQREWVATVTNGGTLYGDSVKGRFTGSRDNAKNTVYLQMNSLKPEDTAVYYCALRQIGASGYDYWGQGTQVTVSS
Turning to B1, the “inhibition of BMP4 signaling (pSMAD1/5/8), dimer compared to monomer” value with BMP4 is “better at inhibiting both BMP2 and BMP4 as compared to the E7 monomer”. In the experiment with BMP2 [1] (BMP2 50 ng/ml, 16 hours, increasing concentrations up to 5 μg/ml), the “inhibition of BMP2-mediated transcriptional activation by dimers” value was “inhibit; also recorded: similar”. Further, in the experiment with human BMP4 (BMP4 5 ng/ml, 16 hours, increasing concentrations), the “inhibition of BMP4-mediated transcriptional activation by dimers” value is given as “inhibit; also recorded: similar”.

B2: hNoggin (protein)
chain: QHYLHIRPAPSDNLPLVDLIEHPDPIFDPKEKDLNETLLRSLLGGHYDPGFMATSPPEDRPGGGGGAAGGAEDLAELDQLLRQRPSGAMPSEIKGLEFSEGLAQGKKQRLSKKLRRKLQMWLWSQTFCPVLYAWNDLGSRFWPRYVKVGSCFSKRSCSVPEGMVCKPSKSVHLTVLRWRCQRRGGQRCGWIPIQYPIISECKCSC
Regarding B2, the “inhibition of BMP-2 signals, comparison of inhibitors” value with BMP2 [1] (50 ng/ml hBMP2, 16 h, VHH, Noggin, Gremlin 500 ng/ml, LDN 0.5 μM, DMH1 0.2 μM) was “greatly inhibit”. For the same molecule, the IC50 was roughly 1.6 nM with BMP2 [1] (50 ng/ml hBMP2, 16 hours, read-out: IC50, neutralization of BMP2) and roughly 0.54 nM with human BMP4 (10 ng/ml hBMP4, 16 hours, read-out: IC50, neutralization of BMP4). For the same molecule, the “inhibition of BMP4-derived signals, comparison of inhibitors” value in the experiment on human BMP4 (10 ng/ml hBMP4, 16 h, VHH, Noggin, Gremlin 500 ng/ml, LDN 0.5 μM, DMH1 0.2 μM) is recorded as “greatly inhibit”. The molecule also had a Kd in the experiment with BMP2 [2] of 0.961 nM.
